# Source: the RNAGym collection of RNA variant scans (doi:10.1073/pnas.2313332121)
# B1: TPR t1 (parent)
# chain: GACCAAUCUGCCCUCAGAGCUCGAGAACAUCUUCGGAUGCAGAGGAGGCAGGCUUCGGUGGCGCGAUAGCGCCAACGUCCUCAACCUCCAAUGCAUCCCACCACAUGAUGAUGCCUGAAGAGCCUUGGUUUUUUG
# Variants of: B1
# Experiment: polymerase ribozyme fitness, log enrichment relative to wild type (log ratio); higher = more active; in vitro selection for triplet polymerase activity
# Procedure, shortened: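 For each subunit of a heterodimeric triplet polymerase ribozyme, a mutant library was built by PCR and transcribed, then taken through a single in vitro selection round in triplicate. Selection involved annealing to a biotinylated primer, the partner subunit and triplets, incubation frozen at −7 °C, gel excision of extended constructs, capture on streptavidin beads and RT-PCR. Genotypes were retained after Illumina sequencing of inputs and outputs only with ≥10 input reads and ≥1 read in each output. Fitness is defined as the logarithm of a genotype's enrichment relative to wild-type enrichment, using inverse-variance-weighted averages across replicates, with the logarithm taken to base 2.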
row,Variant,polymerase ribozyme fitness (log ratio)
1,C13A U129A,-2.8
2,C13G C62U A100C U112C,-1.47
3,C13G C15A A18C C79U G120U,-2.11
4,C13A G60C A84G,-2.96
5,C13A C20U G42U G44A C102U G127C,-6.04
6,C13U A46U,-0.902
7,C12U C89G,-0.883
8,C13U A74U G93C G113A,-1.26
9,C13U A27U C79A,-3.24
10,C13G C104U C123A U125G,0.46
11,C13G A50G G51C G57U A74U,-3.43
12,C13U C40A G61A,-0.491
13,C13U A18C U55G G93U,-2.65
14,C12U C20U C22A G45U C70U A83U A118U,-6.7
15,C13A G19A G52C C76G A118U C124A U133A,-4.56
16,C13G G23U A29C G69A C97A U112G U126G,-6.55
17,C12U C64A,-5.62
18,C12U C64U,0.0316
19,C12U C13U C89U U133G,-0.318
20,C13A A27C U129A,-5.35
21,C12U C72G,0.149
22,C12U C72U,-0.537
23,C12U C80U,-0.606
24,C12U U33G C62G A105U U112G U125A,-6.16

row,Variant,polymerase ribozyme fitness (log ratio)
1,C13G G42U C53A U87C C88U A121C C123A,-0.648
2,C13G C104A G110U,-6.08
3,C13G G51U C72G A111C,-6.15
4,C13G C72U,-1.8
5,C13A A90G A95G U133G,-1.7
6,C12U C56A G63U C89U C124A,-4.63
7,C13A A46U,-3.23
8,C13U C15G A50G G61A,-1.6
9,C13G G127A,-2.49
10,C12U G63A U106G,-3.38
11,C13G G48U,-2.21
12,C12U C15G G63U G120U,-0.846
13,C13G C22A G45U G77A A111U,-6.13
14,C13G C85U,-2.91
15,C13A G61C,-1.81
16,C13G C15A U106A C123A,-1.05
17,C13G G48A C73A,-1.93
18,C13U A84U G113U U116A A119G G135U,-6.59
19,C13A U38A C53U C89A,-4.39
20,C13A G17C,-4.33
21,C13A G58C,-1.37
22,C13G C49G,-2.28
23,C13G C101A,-2.61
24,C13G A50U G61U,-3.51

row,Variant,polymerase ribozyme fitness (log ratio)
1,C13U A121C,1.84
2,C13U A108G G120A,-1.12
3,C12U G135U,0.000607
4,C13U C53G C56A G65A,-7.29
5,C12U C13U C40G C76A G77A U131C,-0.917
6,C12U G17U C28U G39A G42C C56U C70G U106A U109C U112C,-6.21
7,C13A C34A G69A U96A C115A,-7.14
8,C13G G63U C123A,-0.659
9,C12U C70U C97A,-5.44
10,C13G U78G,-2.05
11,C13A A27C C70U,-5.92
12,C12U C40U G69C A91U C101U A121C,-2.89
13,C13U C15A G63C,-4.06
14,C13A G47A,-2.5
15,C13A A37C A118U,-1.38
16,C13G A90U C124U U129C,-3.28
17,C13G C53A,-1.86
18,C13G G51C C104U G120C,-4.18
19,C13U A37U C64G G93C A105U G110U U129G,-7.07
20,C12U C13U A50U U78G U131C,-0.743
21,C13G G51A,-4.69
22,C13G C34G,-5.23
23,C13A A29G C73G C79U U125G,-4.63
24,C13G A83C A121G,1.65

row,Variant,polymerase ribozyme fitness (log ratio)
1,C12U U21G C88U,-2.37
2,C12U C40U G42C C80A C88G C102A A111G C123U U134G,-6.19
3,C13U C62U G63C U112A,-0.823
4,C12U U38G G63U,-1.77
5,C13G A26C C40U C79U C85U G120C,-6.15
6,C13A C123G,-0.0402
7,C13A C123U,0.793
8,C13A G71A G120A A121U,-0.704
9,C13A G51U,-5.64
10,C12U C62A C73U G77U,-3.65
11,C13A C40A C56U,-2.79
12,C13U A18U G42C U87A,-0.601
13,C12U C72A C80U,-0.362
14,C13A G63A,-2.44
15,C13A G61U A91U,-2.53
16,C12U G57C,0.562
17,C13G G69C C94U C115U G135A,-3.43
18,C12U U54A C56A A91C C115U,-1.35
19,C12U A91U G135U,-2.33
20,C13G C53G C115A,-1.47
21,C12U C94U U112C,1.32
22,C12U G63A C124G G127U,1.79
23,C12U G17C C97G C115G,-3.25
24,C13G C40U G47C C62U U78A,-3.84

row,Variant,polymerase ribozyme fitness (log ratio)
1,C12U G120A,1.63
2,C12U G120C,2
3,C12U U78C G110U,-1.38
4,C13G G47U C49U C73A,-3.52
5,C12U C31G,-5.12
6,C12U C22U C28U C124A,-4.02
7,C13A U32C A100C,-2.75
8,C13U C40G G42A C79A,-4.76
9,C13U A66U C70U C72G C88U G120A U126C,-4.41
10,C12U G51A G71C C79U C101A,-5.68
11,C12U G45A U96C G110U G135A,-2.06
12,C13U C40A G120A U131G,-0.101
13,C12U U38C G107A G117C C123A,-5.15
14,C13G G71A G128U,-4.42
15,C13A A29G U32A G39A G120A U126A U130G U134C,-2.77
16,C13A U106A G110A,-2.53
17,C13G C124G U126A U131A,-0.0429
18,C13A A50U C72A,-3.71
19,C12U G36A A83C U106A U129C G135U,-1.4
20,C12U G19A G45U,-2.71
21,C13A C56U,-1.43
22,C13G G52U A75G,-3.6
23,C12U C13A A27G G93A,-5.78
24,C12U G69A,-2

row,Variant,polymerase ribozyme fitness (log ratio)
1,C12U G44C C82G A103G G117C,-6.32
2,C12U A91U,-1.85
3,C13A A119U,0.145
4,C13A G39C G120A,-0.0336
5,C12U U14G U32C G51A C56U G57U G127A,-5.28
6,C13G A43G,-3.37
7,C13A G39C U59G C104U,-1.47
8,C13A C20U C72U,-2.59
9,C13U A37U C64U U92A U126C,-3.51
10,C13A G36C G60U A66U A95C,-6.15
11,C12U C70U G71A,-0.916
12,C13G A66U,-2.18
13,C13U A50U G52C C53A U87A,-3.76
14,C13U C56U U92C C114A,-1.92
15,C12U G51A C101U,-2.14
16,C12U C34A G71U U78G U125A,-3.95
17,C13U A50U A66G C88U A90U U109A U116C,-5.37
18,C12U G52A G63C U112A G120A,-0.326
19,C12U G42U A84C U116A,-3.42
20,C12U G48A U54G A121U U129G,0.00313
21,C12U G39C G52C C53A C79A A119U,-1.3
22,C13G G69A,-3.66
23,C12U G39C C64U A84U,-0.905
24,C13G A37C U112C,-0.647

row,Variant,polymerase ribozyme fitness (log ratio)
1,C12U C15U G45U G69C C82A C101U,-2.95
2,C12U C22G U38A C79U G122A,-3.65
3,C13G C98U,-2.7
4,C13G C104U,-0.77
5,C12U G19U A43U C64G A95C G117U,-7.83
6,C13G A50G G71A U106A C124A G127U,-0.731
7,C13A C56G C89A A90U,-3.98
8,C13U C34U A111C C124U,-5.41
9,C13G G71U U112C,-0.426
10,C13G C56A A74G C101G U112C U130A,-3.67
11,C13A C62U C89A,-3.31
12,C13U C40A,-0.359
13,C13U C40U,-0.246
14,C12U C73U,0.0527
15,C12U C73A,0.441
16,C13A C15U G47C C114A U130C,-6.45
17,C13G G128C,-3.48
18,C12U G35A G57C C88U,-4.97
19,C13A G52A G128C,-4.3
20,C12U C85G,-0.35
21,C12U G47A U55A G61U C86U,-0.0107
22,C13G C64U,-0.666
23,C12U G63U U78A C79U,0.0353
